We go through one protein from publication PMC8284890 (Science Advances, 2021).

This data set concerns the molecule itself. The experiment in a line: cryo-EM particle classification.

B1: NTD-truncated human NPC1L1 in the cholesterol-enriched form (domain or fragment, UniProt Q9UHC9-2 265-1332, looked up)
chain: AIARPQALDSTFYLGQMPGSLVLIIILCSVFAVVTILLVGFRVAPARDKSKMVDPKKGTSLSDKLSFSTHTLLGQFFQGWGTWVASWPLTILVLSVIPVVALAAGLVFTELTTDPVELWSAPNSQARSEKAFHDQHFGPFFRTNQVILTAPNRSSYRYDSLLLGPKNFSGILDLDLLLELLELQERLRHLQVWSPEAQRNISLQDICYAPLNPDNTSLYDCCINSLLQYFQNNRTLLLLTANQTLMGQTSQVDWKDHFLYCANAPLTFKDGTALALSCMADYGAPVFPFLAIGGYKGKDYSEAEALIMTFSLNNYPAGDPRLAQAKLWEEAFLEEMRAFQRRMAGMFQVTFMAERSLEDEINRTTAEDLPIFATSYIVIFLYISLALGSYSSWSRVMVDSKATLGLGGVAVVLGAVMAAMGFFSYLGIRSSLVILQVVPFLVLSVGADNIFIFVLEYQRLPRRPGEPREVHIGRALGRVAPSMLLCSLSEAICFFLGALTPMPAVRTFALTSGLAVILDFLLQMSAFVALLSLDSKRQEASRLDVCCCVKPQELPPPGQGEGLLLGFFQKAYAPFLLHWITRGVVLLLFLALFGVSLYSMCHISVGLDQELALPKDSYLLDYFLFLNRYFEVGAPVYFVTTLGYNFSSEAGMNAICSSAGCNNFSFTQKIQYATEFPEQSYLAIPASSWVDDFIDWLTPSSCCRLYISGPNKDKFCPSTVNSLNCLKNCMSITMGSVRPSVEQFHKYLPWFLNDRPNIKCPKGGLAAYSTSVNLTSDGQVLTSRFMAYHKPLKNSQDYTEALRAARELAANITADLRKVPGTDPAFEVFPYTITNVFYEQYLTILPEGLFMLSLCLVPTFAVSCLLLGLDLRSGLLNLLSIVMILVDTVGFMALWGISYNAVSLINLVSAVGMSVEFVSHITRSFAISTKPTWLERAKEATISMGSAVFAGVAMTNLPGILVLGLAKAQLIQIFFFRLNLLITLLGLLHGLVFLPVILSYVGPDVNPALALEQKRAEEAVAAVMVASCPNHPSRVSTADNIYVNHSFEGSIKGAGAISNFLPNNGRQF
modifications: N-glycosylated (10 N-glycosylation sites seen in the density map)
As to B1, the binding result is recorded as “binds”.
